# “Also recorded” adds a separate entry of the source.
# B1: OmpT protease (wild-type, E. coli mature OmpT protease) (protein)
# chain: STETLSFTPDNINADISLGTLSGKTKERVYLAEEGGRKVSQLDWKFNNAAIIKGAINWDLMPQISIGAAGWTTLGSRGGNMVDQDWMDSSNPGTWTDESRHPDTQLNYANEFDLNIKGWLLNEPNYRLGLMAGYQESRYSFTARGGSYIYSSEEGFRDDIGSFPNGERAIGYKQRFKMPYIGLTGSYRYEDFELGGTFKYSGWVESSDNDEHYDPGKRITYRSKVKDQNYYSVAVNAGYYVTPNAKVYVEGAWNRVTNKKGNTSLYDHNNNTSDYSKNGAGIENYNFITTAGLKYTF
# Key:
# [1] = target: fusion protein PA5′
# [2] = target: fusion protein PA4
# [3] = target: fusion protein PRI
# [4] = target: fusion protein PRK
# [5] = target: fusion protein PA6
# [6] = target: fusion protein PA8
# [7] = target: fusion protein PA5D23′
# [8] = target: fusion protein PRG
# [9] = target: fusion protein PA
# [10] = target: fusion protein PRP
# [11] = target: fusion protein PA10
# [12] = target: fusion protein PA9
# [13] = target: fusion protein PA3D23′
# [14] = target: fusion protein PA2′3′
# [15] = target: fusion protein PA3′
# [16] = target: fusion protein PRA
# [17] = target: fusion protein PA4′
# [18] = target: human calcitonin precursor fusion protein PCT
# [19] = target: fusion protein PMT
# [20] = target: fusion protein PA2′
# [21] = target: fusion protein PRR
# [22] = target: fusion protein PA323′
# [23] = target: fusion protein PRV
# [24] = target: fusion protein PRL
# [25] = target: fusion protein PRN
# [26] = target: fusion protein PRT
# [27] = target: fusion protein PRS
# [28] = target: fusion protein PA1′A3′
# [29] = target: fusion protein PRM
# [30] = target: fusion protein PA1A3′
# [31] = target: fusion protein PRF
# [32] = target: fusion protein PRD
# [33] = target: fusion protein PRE
# [34] = target: fusion protein PRY
# [35] = target: fusion protein PA4D23′
# [36] = target: fusion protein PRQ
# [37] = target: fusion protein PA3
# [38] = target: fusion protein PA7
# [39] = target: fusion protein PRW
# [40] = target: fusion protein PA23′
# [41] = target: fusion protein PRMT
# [42] = target: fusion protein PRC
# [43] = target: human adrenocorticotropic hormone(1-24) fusion protein PAC
# [44] = target: fusion protein PA5
# [45] = target: fusion protein PRH
# [46] = target: fusion protein PA2
# Chain of fusion protein PA2 (chain, as listed by the source): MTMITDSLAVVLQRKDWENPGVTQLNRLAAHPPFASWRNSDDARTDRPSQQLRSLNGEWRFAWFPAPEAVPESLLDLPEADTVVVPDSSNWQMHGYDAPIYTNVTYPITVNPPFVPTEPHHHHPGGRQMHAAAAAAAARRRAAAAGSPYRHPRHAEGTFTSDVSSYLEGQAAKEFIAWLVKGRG
# Chain of fusion protein PA3D23′ (chain, as listed by the source): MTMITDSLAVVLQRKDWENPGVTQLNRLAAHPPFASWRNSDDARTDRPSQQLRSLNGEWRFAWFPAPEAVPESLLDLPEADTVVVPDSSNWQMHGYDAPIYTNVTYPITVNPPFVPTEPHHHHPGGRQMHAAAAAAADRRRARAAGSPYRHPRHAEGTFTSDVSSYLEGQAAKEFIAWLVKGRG
# Chain of fusion protein PA3′ (chain, as listed by the source): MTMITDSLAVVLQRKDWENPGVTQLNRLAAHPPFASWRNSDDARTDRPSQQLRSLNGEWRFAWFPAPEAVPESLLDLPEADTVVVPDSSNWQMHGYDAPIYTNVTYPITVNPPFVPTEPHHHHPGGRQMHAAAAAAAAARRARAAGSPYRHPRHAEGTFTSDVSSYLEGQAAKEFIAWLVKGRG
# Chain of fusion protein PA4D23′ (chain, as listed by the source): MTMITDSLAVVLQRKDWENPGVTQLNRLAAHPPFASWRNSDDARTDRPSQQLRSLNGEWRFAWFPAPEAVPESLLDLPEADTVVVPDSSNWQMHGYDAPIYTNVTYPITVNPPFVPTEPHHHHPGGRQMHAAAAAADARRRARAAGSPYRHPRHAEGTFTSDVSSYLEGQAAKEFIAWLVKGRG
# Chain of fusion protein PA1′A3′ (chain, as listed by the source): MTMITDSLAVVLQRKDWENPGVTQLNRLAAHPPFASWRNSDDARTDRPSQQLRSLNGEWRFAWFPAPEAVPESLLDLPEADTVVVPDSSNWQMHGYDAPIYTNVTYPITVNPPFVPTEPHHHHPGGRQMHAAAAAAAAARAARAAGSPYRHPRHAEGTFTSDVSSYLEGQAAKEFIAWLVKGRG
# Chain of fusion protein PMT (chain, as listed by the source): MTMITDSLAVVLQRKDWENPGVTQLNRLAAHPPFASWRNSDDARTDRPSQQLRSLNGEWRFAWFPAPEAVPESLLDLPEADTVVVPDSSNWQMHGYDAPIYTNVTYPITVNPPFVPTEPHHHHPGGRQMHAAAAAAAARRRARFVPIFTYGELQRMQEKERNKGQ
# Chain of fusion protein PA5D23′ (chain, as listed by the source): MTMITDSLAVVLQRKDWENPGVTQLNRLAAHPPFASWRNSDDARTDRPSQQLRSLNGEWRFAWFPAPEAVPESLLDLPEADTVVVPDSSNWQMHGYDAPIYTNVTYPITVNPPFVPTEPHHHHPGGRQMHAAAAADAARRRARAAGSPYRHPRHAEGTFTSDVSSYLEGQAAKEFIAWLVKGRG
# Chain of fusion protein PA323′ (chain, as listed by the source): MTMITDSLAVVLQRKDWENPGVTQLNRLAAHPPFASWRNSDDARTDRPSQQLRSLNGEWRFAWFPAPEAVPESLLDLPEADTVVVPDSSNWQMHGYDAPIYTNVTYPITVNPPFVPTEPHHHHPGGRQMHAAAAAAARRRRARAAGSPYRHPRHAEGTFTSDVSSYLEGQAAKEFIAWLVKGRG
# Chain of fusion protein PA1A3′ (chain, as listed by the source): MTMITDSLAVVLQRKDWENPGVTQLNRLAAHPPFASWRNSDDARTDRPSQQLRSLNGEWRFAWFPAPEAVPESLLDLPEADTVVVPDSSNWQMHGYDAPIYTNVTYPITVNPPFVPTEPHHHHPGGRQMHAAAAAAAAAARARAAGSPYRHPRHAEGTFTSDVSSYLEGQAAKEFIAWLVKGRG
# Chain of fusion protein PA8 (chain, as listed by the source): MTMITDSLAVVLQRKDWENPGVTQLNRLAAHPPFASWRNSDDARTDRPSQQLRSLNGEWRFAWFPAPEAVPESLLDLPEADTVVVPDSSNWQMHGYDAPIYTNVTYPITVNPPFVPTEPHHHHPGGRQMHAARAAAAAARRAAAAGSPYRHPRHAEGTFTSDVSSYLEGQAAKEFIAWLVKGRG
# Chain of fusion protein PA10 (chain, as listed by the source): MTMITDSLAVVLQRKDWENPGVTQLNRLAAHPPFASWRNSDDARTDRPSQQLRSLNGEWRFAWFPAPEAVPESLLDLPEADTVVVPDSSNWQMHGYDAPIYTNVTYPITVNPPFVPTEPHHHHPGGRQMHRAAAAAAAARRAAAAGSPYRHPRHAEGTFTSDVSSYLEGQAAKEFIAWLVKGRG
# Chain of fusion protein PA9 (chain, as listed by the source): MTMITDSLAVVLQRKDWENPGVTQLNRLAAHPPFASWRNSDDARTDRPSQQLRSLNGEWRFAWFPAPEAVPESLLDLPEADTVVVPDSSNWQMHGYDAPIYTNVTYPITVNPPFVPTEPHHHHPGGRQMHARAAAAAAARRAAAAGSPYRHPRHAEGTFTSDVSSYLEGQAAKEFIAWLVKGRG
# Chain of fusion protein PA23′ (chain, as listed by the source): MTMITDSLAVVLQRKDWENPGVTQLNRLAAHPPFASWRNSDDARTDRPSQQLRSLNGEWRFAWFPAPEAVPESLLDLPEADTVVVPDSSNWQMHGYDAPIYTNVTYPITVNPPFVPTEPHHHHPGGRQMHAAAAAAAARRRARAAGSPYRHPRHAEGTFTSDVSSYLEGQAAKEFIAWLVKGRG
# Chain of fusion protein PA7 (chain, as listed by the source): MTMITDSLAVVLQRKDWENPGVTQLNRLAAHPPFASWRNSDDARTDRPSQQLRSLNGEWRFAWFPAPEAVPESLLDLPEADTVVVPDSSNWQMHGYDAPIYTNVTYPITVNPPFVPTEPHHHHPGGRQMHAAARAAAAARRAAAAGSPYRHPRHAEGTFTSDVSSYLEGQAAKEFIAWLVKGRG
# Chain of fusion protein PA6 (chain, as listed by the source): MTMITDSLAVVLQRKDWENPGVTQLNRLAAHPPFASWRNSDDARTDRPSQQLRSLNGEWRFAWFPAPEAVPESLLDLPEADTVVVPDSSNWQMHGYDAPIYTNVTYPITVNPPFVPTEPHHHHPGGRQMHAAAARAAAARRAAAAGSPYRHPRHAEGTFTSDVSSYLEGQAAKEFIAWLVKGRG
# Chain of fusion protein PA2′3′ (chain, as listed by the source): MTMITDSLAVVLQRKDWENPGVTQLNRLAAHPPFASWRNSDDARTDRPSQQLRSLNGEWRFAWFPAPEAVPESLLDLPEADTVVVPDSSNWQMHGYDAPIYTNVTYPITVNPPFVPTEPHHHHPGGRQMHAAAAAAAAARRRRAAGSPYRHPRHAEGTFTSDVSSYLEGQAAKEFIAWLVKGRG
# Chain of fusion protein PA2′ (chain, as listed by the source): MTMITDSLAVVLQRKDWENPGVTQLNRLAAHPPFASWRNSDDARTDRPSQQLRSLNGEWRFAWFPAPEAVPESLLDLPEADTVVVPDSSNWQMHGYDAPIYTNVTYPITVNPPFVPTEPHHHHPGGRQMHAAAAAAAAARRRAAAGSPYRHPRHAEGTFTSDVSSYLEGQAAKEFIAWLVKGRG
# Chain of fusion protein PA4′ (chain, as listed by the source): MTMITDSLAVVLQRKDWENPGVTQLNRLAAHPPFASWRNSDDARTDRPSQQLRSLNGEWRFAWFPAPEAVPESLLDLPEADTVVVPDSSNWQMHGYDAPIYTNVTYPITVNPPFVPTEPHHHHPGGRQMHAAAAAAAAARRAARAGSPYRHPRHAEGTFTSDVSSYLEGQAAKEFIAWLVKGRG
# Chain of fusion protein PA3 (chain, as listed by the source): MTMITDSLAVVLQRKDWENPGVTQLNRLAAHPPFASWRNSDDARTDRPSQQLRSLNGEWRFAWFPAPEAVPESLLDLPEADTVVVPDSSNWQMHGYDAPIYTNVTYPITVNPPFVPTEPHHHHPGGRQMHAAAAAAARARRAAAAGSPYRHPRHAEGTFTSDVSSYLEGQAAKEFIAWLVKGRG
# Chain of fusion protein PA5 (chain, as listed by the source): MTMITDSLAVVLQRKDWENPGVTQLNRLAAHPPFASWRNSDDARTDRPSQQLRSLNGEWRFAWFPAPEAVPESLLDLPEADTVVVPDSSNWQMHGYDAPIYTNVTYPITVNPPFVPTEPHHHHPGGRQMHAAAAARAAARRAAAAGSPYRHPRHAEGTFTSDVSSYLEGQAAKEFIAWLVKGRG
# Chain of fusion protein PA5′ (chain, as listed by the source): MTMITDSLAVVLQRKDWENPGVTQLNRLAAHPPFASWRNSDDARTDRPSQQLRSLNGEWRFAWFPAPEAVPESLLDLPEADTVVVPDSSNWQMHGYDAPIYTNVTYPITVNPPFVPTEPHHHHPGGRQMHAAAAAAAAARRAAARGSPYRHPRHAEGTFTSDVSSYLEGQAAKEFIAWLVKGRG
# Chain of fusion protein PA4 (chain, as listed by the source): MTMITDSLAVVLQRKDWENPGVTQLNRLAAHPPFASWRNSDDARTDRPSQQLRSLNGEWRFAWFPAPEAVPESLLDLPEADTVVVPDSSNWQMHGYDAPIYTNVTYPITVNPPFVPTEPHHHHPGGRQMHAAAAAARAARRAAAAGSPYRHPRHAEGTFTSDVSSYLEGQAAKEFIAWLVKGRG
# Chain of fusion protein PRC (chain, as listed by the source): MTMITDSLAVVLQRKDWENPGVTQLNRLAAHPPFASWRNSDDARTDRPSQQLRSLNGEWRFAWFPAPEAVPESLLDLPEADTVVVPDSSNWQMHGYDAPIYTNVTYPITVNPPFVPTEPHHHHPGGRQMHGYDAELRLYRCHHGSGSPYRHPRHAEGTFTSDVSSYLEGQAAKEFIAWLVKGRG
# Chain of fusion protein PRG (chain, as listed by the source): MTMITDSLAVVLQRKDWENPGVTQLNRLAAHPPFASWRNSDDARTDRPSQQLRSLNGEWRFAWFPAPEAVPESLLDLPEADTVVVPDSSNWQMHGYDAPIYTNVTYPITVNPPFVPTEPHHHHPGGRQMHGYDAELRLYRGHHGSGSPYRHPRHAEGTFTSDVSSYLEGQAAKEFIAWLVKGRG
# Chain of fusion protein PRQ (chain, as listed by the source): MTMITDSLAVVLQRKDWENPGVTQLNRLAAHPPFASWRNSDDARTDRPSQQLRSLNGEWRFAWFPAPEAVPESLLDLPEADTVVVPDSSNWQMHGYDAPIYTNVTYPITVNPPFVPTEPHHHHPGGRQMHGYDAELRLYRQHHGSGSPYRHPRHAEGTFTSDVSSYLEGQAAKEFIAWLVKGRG
protein,measurement,setting,value
B1,"cleavage (HPLC, mass analysis)",[1],All of the PAn proteins underwent cleavage by OmpT protease at the same site as PA
same,cleavage efficiency against PA,[1],Increase in cleavage efficiency was seen for all of the PAn proteins except for PA2 and PA2′
same,"cleavage (HPLC, mass analysis)",[2],All of the PAn proteins underwent cleavage by OmpT protease at the same site as PA
same,cleavage efficiency against PA,[2],PA4 had the highest cleavage efficiency of about 5 times that of PA
same,relative cleavage efficiency,[3],< 3%
same,relative cleavage efficiency,[4],88%
same,"cleavage (HPLC, mass analysis)",[5],All of the PAn proteins underwent cleavage by OmpT protease at the same site as PA
same,cleavage efficiency against PA,[5],Increase in cleavage efficiency was seen for all of the PAn proteins except for PA2 and PA2′
same,"cleavage (HPLC, mass analysis)",[6],All of the PAn proteins underwent cleavage by OmpT protease at the same site as PA
same,cleavage efficiency against PA,[6],Increase in cleavage efficiency was seen for all of the PAn proteins except for PA2 and PA2′
same,"cleavage (HPLC, mass analysis)",[7],"the major cleavage site of PA5D23′, PA4D23′ and PA3D23′ is Arg^143-Ala^144"
same,cleavage at Arg^140-Arg^141,[7],cleavage was also observed at Arg^140-Arg^141
same,cleavage efficiency at Arg^143-Ala^144 against Arg^140-Arg^141 of PA,[7],1.9 times the cleavage efficiency at Arg^140-Arg^141 of PA
same,relative cleavage efficiency,[8],less than 3%
same,cleavage efficiency (reference),[9],the cleavage efficiency of the fusion protein PA is 100%
same,relative cleavage efficiency,[10],less than 3%
same,"cleavage (HPLC, mass analysis)",[11],All of the PAn proteins underwent cleavage by OmpT protease at the same site as PA
same,cleavage efficiency against PA,[11],Increase in cleavage efficiency was seen for all of the PAn proteins except for PA2 and PA2′
same,"cleavage (HPLC, mass analysis)",[12],All of the PAn proteins underwent cleavage by OmpT protease at the same site as PA
same,cleavage efficiency against PA,[12],Increase in cleavage efficiency was seen for all of the PAn proteins except for PA2 and PA2′
same,"cleavage (HPLC, mass analysis)",[13],"the major cleavage site of PA5D23′, PA4D23′ and PA3D23′ is Arg^143-Ala^144"
same,cleavage at Arg^139-Arg^140 and Arg^140-Arg^141,[13],"no cleavage was detected at Arg^139-Arg^140 and Arg^140-Arg^141, similar to PA4D23′"
same,cleavage efficiency at Arg^143-Ala^144 against Arg^140-Arg^141 of PA,[13],"about the same as the cleavage efficiency at Arg^140-Arg^141 of PA, and lower than PA4D23′"
same,"cleavage (HPLC, mass analysis)",[14],"It was confirmed that PA23′, PA323′ and PA2′3′ are cleaved at Arg^143-Ala^144"
same,cleavage efficiency at Arg^143-Ala^144 against Arg^140-Arg^141 of PA,[14],low at 63% of the cleavage efficiency at Arg^140-Arg^141 of PA
same,"cleavage (HPLC, mass analysis)",[15],"All of the PAn proteins underwent cleavage by OmpT protease at the same site as PA, while PA2, PA2′ and PA3′ also underwent cleavage at other sites"
same,cleavage efficiency against PA,[15],Increase in cleavage efficiency was seen for all of the PAn proteins except for PA2 and PA2′
same,cleavage efficiency at Arg^140-Arg^141 (PA = 100%),[15],"cleavage efficiencies: 220%, 73%"
same,cleavage efficiency at Arg^143-Ala^144 (PA = 100%),[15],"cleavage efficiencies: 220%, 73%"
same,relative cleavage efficiency,[16],5.4%
same,"cleavage (HPLC, mass analysis)",[17],All of the PAn proteins underwent cleavage by OmpT protease at the same site as PA
same,cleavage efficiency against PA,[17],Increase in cleavage efficiency was seen for all of the PAn proteins except for PA2 and PA2′
same,"cleavage (HPLC, mass analysis)",[18],"The fusion protein PCT was cleaved at Arg^139-Arg^140 and Arg^140-Arg^141 by wild-type OmpT protease, releasing RRAR-CT and RAR-CT"
same,"cleavage (SDS-PAGE, HPLC)",[19],cleavage of the fusion protein PMT by OmpT protease was confirmed
same,release of human motilin (cleavage at Arg^143-Phe^144),[19],"only a very slight amount of peptide cleavage fragment of Arg^143-Phe^144, i.e. human motilin, was detected by mass analysis"
same,relative cleavage efficiency: RAR-motilin (Arg^140-Arg^141),[19]; scale: relative,23
same,relative cleavage efficiency: RRAR-motilin (Arg^139-Arg^140),[19]; scale: relative,100
same,"cleavage (HPLC, mass analysis)",[20],"All of the PAn proteins underwent cleavage by OmpT protease at the same site as PA, while PA2, PA2′ and PA3′ also underwent cleavage at other sites"
same,cleavage efficiency against PA,[20],the cleavage efficiencies of PA2 and PA2′ were reduced to about ⅓
same,relative cleavage efficiency,[21],100%
same,"cleavage (HPLC, mass analysis)",[22],"It was confirmed that PA23′, PA323′ and PA2′3′ are cleaved at Arg^143-Ala^144"
same,cleavage at Arg^140-Arg^141 against Arg^143-Ala^144,[22],at 59% the cleavage efficiency at Arg^143-Ala^144
same,cleavage efficiency at Arg^143-Ala^144 against Arg^140-Arg^141 of PA,[22],also 2.9 times the cleavage efficiency at Arg^140-Arg^141 of PA
same,relative cleavage efficiency,[23],3.5%
same,relative cleavage efficiency,[24],less than 3%
same,relative cleavage efficiency,[25],< 3%
same,relative cleavage efficiency,[26],< 3%
same,relative cleavage efficiency,[27],3.9%
same,"cleavage (HPLC, mass analysis)",[28],PA1A3′ and PA1′A3′ were both cleaved at Arg^143-Ala^144; also recorded: Cleavage was also confirmed at Arg^140-Ala^141 in PA1′A3′
same,cleavage efficiency against PA,[28],all of the cleavage efficiencies were lower than the cleavage efficiency at Arg^140-Arg^141 of PA
same,relative cleavage efficiency,[29],< 3%
same,"cleavage (HPLC, mass analysis)",[30],PA1A3′ and PA1′A3′ were both cleaved at Arg^143-Ala^144
same,cleavage efficiency against PA,[30],all of the cleavage efficiencies were lower than the cleavage efficiency at Arg^140-Arg^141 of PA
same,relative cleavage efficiency,[31],< 3%
same,relative cleavage efficiency,[32],less than 3%
same,relative cleavage efficiency,[33],less than 3%
same,relative cleavage efficiency,[34],< 3%
same,"cleavage (HPLC, mass analysis)",[35],"the major cleavage site of PA5D23′, PA4D23′ and PA3D23′ is Arg^143-Ala^144"
same,cleavage at Arg^139-Arg^140 and Arg^140-Arg^141,[35],no cleavage was detected at Arg^139-Arg^140 and Arg^140-Arg^141 as was detected with PA23′
same,cleavage efficiency at Arg^143-Ala^144 against Arg^140-Arg^141 of PA,[35],"low compared to PA23′, but twice the cleavage efficiency at Arg^140-Arg^141 of PA"
same,relative cleavage efficiency,[36],less than 3%
same,"cleavage (HPLC, mass analysis)",[37],All of the PAn proteins underwent cleavage by OmpT protease at the same site as PA
same,cleavage efficiency against PA,[37],Increase in cleavage efficiency was seen for all of the PAn proteins except for PA2 and PA2′
same,"cleavage (HPLC, mass analysis)",[38],All of the PAn proteins underwent cleavage by OmpT protease at the same site as PA
same,cleavage efficiency against PA,[38],Increase in cleavage efficiency was seen for all of the PAn proteins except for PA2 and PA2′
same,relative cleavage efficiency,[39],less than 3%
same,"cleavage (HPLC, mass analysis)",[40],"It was confirmed that PA23′, PA323′ and PA2′3′ are cleaved at Arg^143-Ala^144"
same,cleavage efficiency at Arg^143-Ala^144 against Arg^140-Arg^141 of PA,[40],2.9 times the cleavage efficiency at Arg^140-Arg^141 of PA
same,cleavage (SDS-PAGE),[41],no cleavage of PRMT was detected
same,relative cleavage efficiency,[42],3.1%
same,"cleavage (HPLC, mass analysis)",[43],The fusion protein PAC was cleaved at Arg^143-Ser^144 by wild-type OmpT protease to release human adrenocorticotropic hormone(1-24)
same,"cleavage (HPLC, mass analysis)",[44],All of the PAn proteins underwent cleavage by OmpT protease at the same site as PA
same,cleavage efficiency against PA,[44],Increase in cleavage efficiency was seen for all of the PAn proteins except for PA2 and PA2′
same,relative cleavage efficiency,[45],less than 3%
same,"cleavage (HPLC, mass analysis)",[46],"All of the PAn proteins underwent cleavage by OmpT protease at the same site as PA, while PA2, PA2′ and PA3′ also underwent cleavage at other sites"
same,cleavage efficiency against PA,[46],the cleavage efficiencies of PA2 and PA2′ were reduced to about ⅓

# From patent publication US20070077617
